The numbers were not newly measured in paper PMC8069034, which cites them from elsewhere.

In this series the target is IL13 (Homo sapiens) (UniProt P35225). Kind of series: SPR. In general terms: Surface plasmon resonance follows binding to a sensor surface in real time, without labels.
IL13 (Homo sapiens), sequence (P35225 25-146): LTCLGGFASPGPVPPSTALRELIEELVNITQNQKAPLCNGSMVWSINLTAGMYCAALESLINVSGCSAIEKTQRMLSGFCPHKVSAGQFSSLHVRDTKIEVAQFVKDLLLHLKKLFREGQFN

As a reminder, the Kd is the equilibrium constant for the complex coming apart. With tralokinumab, the Kd was 58 pM.
